# Results as given in patent US9745384B2, “Peptides useful for modulating histone demethylase function” (The Brigham and Women's Hospital, Inc., priority 2012, dated 2017).
# B1: NPAC: full-length human NPAC/GLYR1 (protein ID: Q49A26), recombinant, LSD2 cofactor (protein)
# chain: MAAVSLRLGDLVWGKLGRYPPWPGKIVNPPKDLKKPRGKKCFFVKFFGTEDHAWIKVEQLKPYHAHKEEMIKINKGKRFQQAVDAVEEFLRRAKGKDQTSSHNSSDDKNRRNSSEERSRPNSGDEKRKLSLSEGKVKKNMGEGKKRVSSGSSERGSKSPLKRAQEQSPRKRGRPPKDEKDLTIPESSTVKGMMAGPMAAFKWQPTASEPVKDADPHFHHFLLSQTEKPAVCYQAITKKLKICEEETGSTSIQAADSTAVNGSITPTDKKIGFLGLGLMGSGIVSNLLKMGHTVTVWNRTAEKCDLFIQEGARLGRTPAEVVSTCDITFACVSDPKAAKDLVLGPSGVLQGIRPGKCYVDMSTVDADTVTELAQVIVSRGGRFLEAPVSGNQQLSNDGMLVILAAGDRGLYEDCSSCFQAMGKTSFFLGEVGNAAKMMLIVNMVQGSFMATIAEGLTLAHVTGQSQQTLLDILNQGQLASIFLDQKCQNILQGNFKPDFYLKYIQKDLRLAIALGDAVNHPTPMAAAANEVYKRAKALDQSDNDMSAVYRAYIH
# Key:
# [1] = target: T1, LSD2 (Homo sapiens, UniProt Q8NB78); experiment: H3K4me2 peptide demethylation assay (MALDI-TOF); assay type: biochemical; parameters: 0.15 μM or 1.2 μM purified LSD2 (residues 51-822); His6 (cleaved yes); made in house; host or cells: Sf9 insect cells (baculovirus); details: longer H3K4me2 peptide residues 1-44
# T1 sequence (Q8NB78 1-822): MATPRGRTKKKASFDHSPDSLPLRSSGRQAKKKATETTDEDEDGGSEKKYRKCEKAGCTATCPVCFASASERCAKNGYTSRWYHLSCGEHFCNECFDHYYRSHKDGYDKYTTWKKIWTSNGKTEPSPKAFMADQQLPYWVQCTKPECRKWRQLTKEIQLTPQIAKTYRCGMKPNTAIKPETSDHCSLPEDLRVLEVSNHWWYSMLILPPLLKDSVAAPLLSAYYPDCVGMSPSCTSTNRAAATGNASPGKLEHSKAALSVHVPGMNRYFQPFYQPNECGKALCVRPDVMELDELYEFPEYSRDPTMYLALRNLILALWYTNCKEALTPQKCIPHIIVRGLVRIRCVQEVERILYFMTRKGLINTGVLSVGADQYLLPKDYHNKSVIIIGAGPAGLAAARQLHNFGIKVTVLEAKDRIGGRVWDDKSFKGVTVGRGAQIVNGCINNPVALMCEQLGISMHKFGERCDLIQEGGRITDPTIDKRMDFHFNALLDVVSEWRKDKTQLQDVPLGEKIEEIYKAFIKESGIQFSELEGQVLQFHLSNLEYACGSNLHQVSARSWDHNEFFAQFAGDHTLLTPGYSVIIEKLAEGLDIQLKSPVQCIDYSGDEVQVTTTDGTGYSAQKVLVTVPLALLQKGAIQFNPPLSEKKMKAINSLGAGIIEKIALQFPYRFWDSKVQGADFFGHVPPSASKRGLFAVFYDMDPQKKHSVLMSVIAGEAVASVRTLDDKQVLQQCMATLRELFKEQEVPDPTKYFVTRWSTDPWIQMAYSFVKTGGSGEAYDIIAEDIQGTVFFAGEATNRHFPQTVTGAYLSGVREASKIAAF
# Experimental: FIGS. 12A-12F depict analysis of LSD2 demethylation activity and mutational analysis. […] Demethylation products were analyzed by MALDI-TOF mass spectrometry. 0.15 μM LSD2 can efficiently demethylate the longer H3K4me2 peptide (1-21), but has no detectable activity on the shorter histone peptide (1-15), demethylation of which requires high concentration (1.2 μM) of LSD2. […] It indicates the importance of histone residue 16-21 to LSD2 enzymatic activity and NPAC cofactor activity, supporting our model that NPAC assists enzyme-substrate interactions by creating a new binding site for H3 L20 in the LSD2-NPAC complex. FIG. 12C depicts LSD2 demethylation and NPAC cofactor activity on longer H3K4me2 peptide (1-44). […] The cofactor activity of wild-type NPAC was readily detected under the same conditions. […] It is noted that no obvious cofactor effect of F217A peptide or linker regions was detected in nucleosome and peptide demethylation assays (FIG. 6E and data not shown). […]
# Histone peptides are purchased from Millipore, or custom synthesized. The purity of all peptides are >95% as determined by HPLC and mass spectrometry. […] The products were desalted through a C18 Ziptip (Millipore) and analyzed on a MALDI-TOF micro MX mass spectrometer (ABI 4700, Applied Biosystems). […]
# [2] = system: CCND1 and CCNE1 expression; experiment: CCND1 and CCNE1 expression in breast cancer cells; assay type: cell-based; details: stable MDA-MB-231 cell lines, shRNA-resistant cDNA
# Source text: We first established stable MDA-MB-231 cell lines that express similar levels of the mutant or the wild-type full-length NPAC from cDNAs introduced with silent mutations and resistant to NPAC shRNA (data not shown). […] Thus, mutation of the LSD2-interacting residues F218, L219 and L291 of NPAC can disrupt LSD2 and NPAC functions in vivo.
# We next examined if it is possible to use a small molecule to manipulate the interaction between NPAC and LSD2, thus affecting target gene expression. We have shown that a short mutant NPAC peptide (residues 214-225) can interact with LSD2 with high affinity, however, lost its cofactor activity. NPAC214-225.F217A is expected to be able to competitive inhibit the interaction between endogenous NPAC and LSD2, without stimulating LSD2 demethylase activity (FIG. 25A, right). […] Thus, unable to stimulate the histone demethylase activity of endogenous LSD2, this mutant peptide is a potent inhibitor of LSD2 function by competitively inhibiting LSD2 binding by endogenous NPAC.
molecule,measurement,setting,value
B1,Cofactor activity: stimulation of LSD2 demethylation of H3K4me2 peptide,[1],can robustly stimulate LSD2 demethylation of the longer peptide (1-44)
same,Rescue of CCND1 and CCNE1 down regulation caused by NPAC shRNA,[2],prevents down regulation of CCND1 and CCNE1 by NPAC shRNA
